# In patent US20180258163A1 (Chugai, published 2018):
# Positions count from the first letter of the chain named. Names may count otherwise.
# T1: soluble human FcγRIIb (human, UniProt P31994 43-217, limits assumed)
# T1 construct: soluble His-tagged form; also called hFcγRIIb
# T1 sequence (looked up): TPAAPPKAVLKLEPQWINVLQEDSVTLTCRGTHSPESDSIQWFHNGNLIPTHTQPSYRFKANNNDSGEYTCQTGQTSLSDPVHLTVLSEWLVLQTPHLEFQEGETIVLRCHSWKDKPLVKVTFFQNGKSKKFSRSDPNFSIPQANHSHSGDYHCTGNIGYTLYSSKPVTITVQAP
# B1: Ab1H005m/Ab1L (antibody, human IgG1, kappa, name in Kabat numbering)
# heavy: not shown
# light: DIQMTQSPSSVSASVGDRVTITCQASESIYSGLAWYQQKPGQPPKLLIYDHSTLASGVPSRFSGSGSGTEYALTISSLQPEDFATYYCQHADYAHHSDNVFGGGTKVEIKRTVAAPSVFIFPPSDEQLKSGTASVVCLLNNFYPREAKVQWKVDNALQSGNSQESVTEQDSKDSTYSLSSTLTLSKADYEKHKVYACEVTHQGLSSPVTKSFNRGEC
# notes: copies: 2 + 2
# B2: Ab1H010/Ab1L (antibody, human IgG1, kappa, name in Kabat numbering)
# heavy: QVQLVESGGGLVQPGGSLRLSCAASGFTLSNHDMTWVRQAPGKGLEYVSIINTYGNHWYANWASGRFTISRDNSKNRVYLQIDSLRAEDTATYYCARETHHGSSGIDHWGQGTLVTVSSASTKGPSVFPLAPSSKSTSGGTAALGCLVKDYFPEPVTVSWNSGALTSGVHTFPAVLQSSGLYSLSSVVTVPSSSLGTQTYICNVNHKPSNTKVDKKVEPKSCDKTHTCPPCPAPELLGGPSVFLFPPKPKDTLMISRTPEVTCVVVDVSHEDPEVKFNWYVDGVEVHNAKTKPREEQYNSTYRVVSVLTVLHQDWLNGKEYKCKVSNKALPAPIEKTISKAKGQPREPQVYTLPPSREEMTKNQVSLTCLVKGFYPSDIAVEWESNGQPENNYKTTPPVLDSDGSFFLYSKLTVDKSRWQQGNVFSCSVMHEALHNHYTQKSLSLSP
# light: B1 light
# notes: copies: 2 + 2
# B3: Ab1H028/Ab1L (antibody, human IgG1, kappa, name in Kabat numbering)
# heavy: not shown
# light: B1 light
# notes: copies: 2 + 2
# B4: Ab1H039/Ab1L (antibody, human IgG1, kappa, name in Kabat numbering)
# heavy: not shown
# light: B1 light
# notes: copies: 2 + 2
# B5: Ab1H031m/Ab1L (antibody, human IgG1, kappa, name in Kabat numbering)
# heavy: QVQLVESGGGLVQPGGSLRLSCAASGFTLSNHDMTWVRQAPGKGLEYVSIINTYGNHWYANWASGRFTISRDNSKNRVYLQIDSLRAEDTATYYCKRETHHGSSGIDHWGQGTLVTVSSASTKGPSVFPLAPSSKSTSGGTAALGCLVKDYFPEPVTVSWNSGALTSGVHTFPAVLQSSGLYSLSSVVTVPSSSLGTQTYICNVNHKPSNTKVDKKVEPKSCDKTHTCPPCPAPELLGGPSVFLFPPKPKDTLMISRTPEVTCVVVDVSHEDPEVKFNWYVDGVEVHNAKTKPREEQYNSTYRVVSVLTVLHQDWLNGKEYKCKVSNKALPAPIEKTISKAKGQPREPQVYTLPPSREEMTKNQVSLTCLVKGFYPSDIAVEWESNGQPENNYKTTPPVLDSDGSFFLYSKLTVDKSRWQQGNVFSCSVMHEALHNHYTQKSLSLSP
# light: B1 light
# notes: copies: 2 + 2
# B6: Ab1H016/Ab1L (antibody, human IgG1, kappa, name in Kabat numbering)
# heavy: not shown
# light: B1 light
# notes: copies: 2 + 2
# B7: Ab1H012/Ab1L (antibody, human IgG1, kappa, name in Kabat numbering)
# heavy: not shown
# light: B1 light
# notes: copies: 2 + 2
# B8: Ab1H014/Ab1L (antibody, human IgG1, kappa, name in Kabat numbering)
# heavy: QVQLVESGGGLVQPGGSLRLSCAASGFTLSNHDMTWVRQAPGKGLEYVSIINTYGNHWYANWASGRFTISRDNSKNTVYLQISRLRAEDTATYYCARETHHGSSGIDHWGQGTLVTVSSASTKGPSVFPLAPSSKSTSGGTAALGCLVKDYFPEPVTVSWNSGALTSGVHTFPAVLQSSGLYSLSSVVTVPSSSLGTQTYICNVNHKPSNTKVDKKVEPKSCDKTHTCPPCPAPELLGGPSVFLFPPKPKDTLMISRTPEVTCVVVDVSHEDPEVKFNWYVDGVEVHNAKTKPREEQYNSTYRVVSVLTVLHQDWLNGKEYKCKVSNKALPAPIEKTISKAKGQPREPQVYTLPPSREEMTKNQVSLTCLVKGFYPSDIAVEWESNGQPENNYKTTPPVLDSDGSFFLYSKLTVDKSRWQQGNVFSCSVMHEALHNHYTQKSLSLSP
# light: B1 light
# notes: copies: 2 + 2
# B9: Ab1H013/Ab1L (antibody, human IgG1, kappa, name in Kabat numbering)
# heavy: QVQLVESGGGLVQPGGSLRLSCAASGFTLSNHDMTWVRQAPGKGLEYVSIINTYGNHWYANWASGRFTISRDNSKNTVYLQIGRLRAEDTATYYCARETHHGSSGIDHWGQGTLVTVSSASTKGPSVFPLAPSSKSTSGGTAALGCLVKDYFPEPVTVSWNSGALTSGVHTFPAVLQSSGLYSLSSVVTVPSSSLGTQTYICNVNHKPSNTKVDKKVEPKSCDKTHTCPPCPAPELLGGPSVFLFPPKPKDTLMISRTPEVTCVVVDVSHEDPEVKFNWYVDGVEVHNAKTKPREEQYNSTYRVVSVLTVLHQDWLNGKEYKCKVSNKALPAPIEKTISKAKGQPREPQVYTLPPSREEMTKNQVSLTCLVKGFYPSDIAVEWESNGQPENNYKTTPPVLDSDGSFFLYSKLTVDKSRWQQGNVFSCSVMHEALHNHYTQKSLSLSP
# light: B1 light
# notes: copies: 2 + 2
# B10: Ab1H018/Ab1L (antibody, human IgG1, kappa, name in Kabat numbering)
# heavy: not shown
# light: B1 light
# notes: copies: 2 + 2
# B11: Ab1H045/Ab1L (antibody, human IgG1, kappa, name in Kabat numbering)
# heavy: not shown
# light: B1 light
# notes: copies: 2 + 2
# B12: Ab1H027/Ab1L (antibody, human IgG1, kappa, name in Kabat numbering)
# heavy: not shown
# light: B1 light
# notes: copies: 2 + 2
# B13: Ab1H035/Ab1L (antibody, human IgG1, kappa, name in Kabat numbering)
# heavy: not shown
# light: B1 light
# notes: copies: 2 + 2
# B14: Ab1H034/Ab1L (antibody, human IgG1, kappa, name in Kabat numbering)
# heavy: not shown
# light: B1 light
# notes: copies: 2 + 2
# B15: Ab1H030/Ab1L (antibody, human IgG1, kappa, name in Kabat numbering)
# heavy: not shown
# light: B1 light
# notes: copies: 2 + 2
# B16: Ab1H041m/Ab1L (antibody, human IgG1, kappa, name in Kabat numbering)
# heavy: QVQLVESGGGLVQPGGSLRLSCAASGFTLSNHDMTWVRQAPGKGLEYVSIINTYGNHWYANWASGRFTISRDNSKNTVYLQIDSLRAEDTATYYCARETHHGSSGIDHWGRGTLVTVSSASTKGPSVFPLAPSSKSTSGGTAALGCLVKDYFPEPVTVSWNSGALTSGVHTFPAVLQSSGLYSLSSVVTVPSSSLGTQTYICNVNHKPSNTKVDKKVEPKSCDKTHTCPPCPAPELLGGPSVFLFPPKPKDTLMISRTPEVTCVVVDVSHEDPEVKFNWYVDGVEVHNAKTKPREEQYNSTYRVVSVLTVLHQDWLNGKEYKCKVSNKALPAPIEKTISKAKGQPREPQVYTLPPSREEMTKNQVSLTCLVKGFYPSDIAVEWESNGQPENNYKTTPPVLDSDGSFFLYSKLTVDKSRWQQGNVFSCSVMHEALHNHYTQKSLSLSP
# light: B1 light
# notes: copies: 2 + 2
# B17: Ab1H029/Ab1L (antibody, human IgG1, kappa, name in Kabat numbering)
# heavy: not shown
# light: B1 light
# notes: copies: 2 + 2
# B18: Ab1H/Ab1L038 (antibody, human IgG1, kappa)
# heavy: not shown
# light: B1 light with Q24R, E27R, S52R, S56R, T74K, S77R
# notes: copies: 2 + 2
# B19: Ab1H/Ab1L030 (antibody, human IgG1, kappa)
# heavy: not shown
# light: B1 light with A25R, S26R, S65R, T69R
# notes: copies: 2 + 2
# B20: Ab1H/Ab1L028 (antibody, human IgG1, kappa)
# heavy: not shown
# light: B1 light with A25R, S26R, S52R, S56R
# notes: copies: 2 + 2
# B21: Ab1H/Ab1L040 (antibody, human IgG1, kappa)
# heavy: not shown
# light: B1 light with Q24R, E27R, G41R, Q42K, S76R, Q79K
# notes: copies: 2 + 2
# B22: Ab1H/Ab1L036 (antibody, human IgG1, kappa)
# heavy: not shown
# light: B1 light with Q24R, E27R, S65R, T69R, S76R, Q79K
# notes: copies: 2 + 2
# B23: Ab1H/Ab1L062 (antibody, human IgG1, kappa)
# heavy: not shown
# light: B1 light with S65R, Q79K
# notes: copies: 2 + 2
# B24: Ab1H/Ab1L039 (antibody, human IgG1, kappa)
# heavy: not shown
# light: B1 light with Q24R, E27R, T74K, S76R, S77R, Q79K
# notes: copies: 2 + 2
# B25: Ab1H/Ab1L037 (antibody, human IgG1, kappa)
# heavy: not shown
# light: B1 light with Q24R, E27R, G41R, Q42K, T74K, S77R
# notes: copies: 2 + 2
# B26: Ab1H/Ab1L035 (antibody, human IgG1, kappa)
# heavy: not shown
# light: B1 light with Q24R, E27R, S65R, T69R, T74K, S77R
# notes: copies: 2 + 2
# B27: Ab1H/Ab1L033 (antibody, human IgG1, kappa)
# heavy: not shown
# light: B1 light with Q24R, E27R, G41R, Q42K, S65R, T69R
# notes: copies: 2 + 2
# B28: Ab1H/Ab1L034 (antibody, human IgG1, kappa)
# heavy: not shown
# light: B1 light with Q24R, E27R, S52R, S56R, S65R, T69R
# notes: copies: 2 + 2
# B29: Ab1H/Ab1L041 (antibody, human IgG1, kappa)
# heavy: not shown
# light: B1 light with Q24R, E27R, S52R, S56R, S76R, Q79K
# notes: copies: 2 + 2
# B30: Ab1H/Ab1L061 (antibody, human IgG1, kappa)
# heavy: not shown
# light: B1 light with Q42K, S76R
# notes: copies: 2 + 2
# B31: Ab1H/Ab1L029 (antibody, human IgG1, kappa)
# heavy: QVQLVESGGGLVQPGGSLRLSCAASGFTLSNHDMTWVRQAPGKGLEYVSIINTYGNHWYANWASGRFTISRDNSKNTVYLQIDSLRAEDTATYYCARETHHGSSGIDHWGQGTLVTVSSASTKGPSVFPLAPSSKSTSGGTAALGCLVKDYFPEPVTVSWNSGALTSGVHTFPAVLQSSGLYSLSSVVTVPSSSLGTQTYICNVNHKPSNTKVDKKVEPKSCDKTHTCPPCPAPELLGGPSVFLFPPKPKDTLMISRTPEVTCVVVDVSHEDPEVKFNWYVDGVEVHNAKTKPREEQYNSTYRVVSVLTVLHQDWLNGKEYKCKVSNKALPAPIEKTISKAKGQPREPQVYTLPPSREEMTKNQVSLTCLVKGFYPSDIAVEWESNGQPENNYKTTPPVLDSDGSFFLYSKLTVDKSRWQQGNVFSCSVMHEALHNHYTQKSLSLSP
# light: B1 light with A25R, S26R, S52K, S56K
# notes: copies: 2 + 2
# B32: Ab1H-P1653m/Ab1L (antibody, human IgG1, kappa, name in EU numbering)
# heavy: not shown
# light: B1 light
# notes: copies: 2 + 2
# B33: Ab1H-P1481m/Ab1L (antibody, human IgG1, kappa, name in EU numbering)
# heavy: not shown
# light: B1 light
# B34: Ab1H-P1514m/Ab1L (antibody, human IgG1, kappa, name in EU numbering)
# heavy: not shown
# light: B1 light
# notes: copies: 2 + 2
# B35: Ab1H-P1468m/Ab1L (antibody, human IgG1, kappa, name in EU numbering)
# heavy: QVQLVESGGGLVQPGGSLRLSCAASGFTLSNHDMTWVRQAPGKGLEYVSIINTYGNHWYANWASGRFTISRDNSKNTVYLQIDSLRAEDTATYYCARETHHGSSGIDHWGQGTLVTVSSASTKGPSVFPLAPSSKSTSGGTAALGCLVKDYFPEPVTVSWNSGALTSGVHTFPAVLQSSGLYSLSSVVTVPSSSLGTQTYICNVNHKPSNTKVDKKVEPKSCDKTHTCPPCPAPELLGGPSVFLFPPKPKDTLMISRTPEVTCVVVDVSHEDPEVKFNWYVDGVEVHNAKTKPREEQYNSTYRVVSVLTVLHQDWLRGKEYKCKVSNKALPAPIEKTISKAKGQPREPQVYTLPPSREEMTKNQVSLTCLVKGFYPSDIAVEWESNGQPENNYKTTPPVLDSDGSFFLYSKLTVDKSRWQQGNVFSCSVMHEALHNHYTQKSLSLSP
# light: B1 light
# notes: copies: 2 + 2
# B36: Ab1H-P1513m/Ab1L (antibody, human IgG1, kappa, name in EU numbering)
# heavy: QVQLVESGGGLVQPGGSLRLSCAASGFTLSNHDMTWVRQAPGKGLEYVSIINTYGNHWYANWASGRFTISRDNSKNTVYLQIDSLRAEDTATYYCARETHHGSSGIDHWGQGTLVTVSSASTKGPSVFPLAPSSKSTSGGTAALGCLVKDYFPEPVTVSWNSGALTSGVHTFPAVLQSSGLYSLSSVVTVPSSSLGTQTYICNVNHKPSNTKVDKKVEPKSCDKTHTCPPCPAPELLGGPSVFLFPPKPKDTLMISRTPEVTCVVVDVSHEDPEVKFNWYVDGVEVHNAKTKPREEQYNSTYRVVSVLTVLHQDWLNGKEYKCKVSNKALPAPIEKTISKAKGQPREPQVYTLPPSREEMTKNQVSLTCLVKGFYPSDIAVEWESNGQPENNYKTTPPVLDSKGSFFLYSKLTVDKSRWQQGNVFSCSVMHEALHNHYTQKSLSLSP
# light: B1 light
# notes: copies: 2 + 2
# B37: Ab1H-P1398m/Ab1L (antibody, human IgG1, kappa, name in EU numbering)
# heavy: not shown
# light: B1 light
# notes: copies: 2 + 2
# B38: Ab1H-P1471m/Ab1L (antibody, human IgG1, kappa, name in EU numbering)
# heavy: not shown
# light: B1 light
# notes: copies: 2 + 2
# B39: Ab1H-P1394m/Ab1L (antibody, human IgG1, kappa)
# heavy: not shown
# light: B1 light
# notes: heavy chain = Ab1H with Q311K (EU); copies: 2 + 2
# B40: Ab1H-P1483m/Ab1L (antibody, human IgG1, kappa, name in EU numbering)
# heavy: not shown
# light: B1 light
# B41: Ab1H-P1480m/Ab1L (antibody, human IgG1, kappa, name in EU numbering)
# heavy: not shown
# light: B1 light
# B42: Ab1H-P1482m/Ab1L (antibody, human IgG1, kappa, name in EU numbering)
# heavy: not shown
# light: B1 light
# B43: Ab1H-P1512m/Ab1L (antibody, human IgG1, kappa, name in EU numbering)
# heavy: not shown
# light: B1 light
# notes: copies: 2 + 2
# B44: Ab1H-P1470m/Ab1L (antibody, human IgG1, kappa, name in EU numbering)
# heavy: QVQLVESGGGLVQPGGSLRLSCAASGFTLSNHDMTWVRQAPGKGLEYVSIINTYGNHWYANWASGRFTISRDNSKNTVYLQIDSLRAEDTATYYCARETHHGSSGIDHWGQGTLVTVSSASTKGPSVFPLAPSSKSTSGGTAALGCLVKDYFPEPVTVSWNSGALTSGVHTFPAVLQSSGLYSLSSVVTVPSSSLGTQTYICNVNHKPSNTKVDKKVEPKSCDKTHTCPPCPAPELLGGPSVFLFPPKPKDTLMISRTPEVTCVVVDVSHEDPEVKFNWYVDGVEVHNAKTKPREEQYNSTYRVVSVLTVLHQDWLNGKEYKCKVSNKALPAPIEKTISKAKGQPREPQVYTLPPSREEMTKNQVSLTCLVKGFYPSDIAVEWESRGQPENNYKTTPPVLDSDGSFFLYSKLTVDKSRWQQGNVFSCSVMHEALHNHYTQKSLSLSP
# light: B1 light
# notes: copies: 2 + 2
# B45: Ab1H-P1469m/Ab1L (antibody, human IgG1, kappa, name in EU numbering)
# heavy: not shown
# light: B1 light
# notes: copies: 2 + 2
# B46: Ab1H-P1466m/Ab1L (antibody, human IgG1, kappa, name in EU numbering)
# heavy: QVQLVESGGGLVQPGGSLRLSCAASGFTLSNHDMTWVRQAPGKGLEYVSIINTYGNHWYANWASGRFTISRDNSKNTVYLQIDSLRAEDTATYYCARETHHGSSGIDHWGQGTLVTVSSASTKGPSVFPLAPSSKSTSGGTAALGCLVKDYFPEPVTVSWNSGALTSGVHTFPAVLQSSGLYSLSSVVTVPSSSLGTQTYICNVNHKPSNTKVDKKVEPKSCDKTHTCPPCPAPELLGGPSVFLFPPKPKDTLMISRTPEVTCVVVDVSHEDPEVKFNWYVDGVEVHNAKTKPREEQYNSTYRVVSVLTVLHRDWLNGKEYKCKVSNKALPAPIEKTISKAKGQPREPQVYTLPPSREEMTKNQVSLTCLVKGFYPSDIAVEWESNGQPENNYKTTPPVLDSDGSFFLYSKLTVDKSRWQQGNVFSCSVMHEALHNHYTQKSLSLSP
# light: B1 light
# notes: copies: 2 + 2
# B47: Ab1H-P1515m/Ab1L (antibody, human IgG1, kappa, name in EU numbering)
# heavy: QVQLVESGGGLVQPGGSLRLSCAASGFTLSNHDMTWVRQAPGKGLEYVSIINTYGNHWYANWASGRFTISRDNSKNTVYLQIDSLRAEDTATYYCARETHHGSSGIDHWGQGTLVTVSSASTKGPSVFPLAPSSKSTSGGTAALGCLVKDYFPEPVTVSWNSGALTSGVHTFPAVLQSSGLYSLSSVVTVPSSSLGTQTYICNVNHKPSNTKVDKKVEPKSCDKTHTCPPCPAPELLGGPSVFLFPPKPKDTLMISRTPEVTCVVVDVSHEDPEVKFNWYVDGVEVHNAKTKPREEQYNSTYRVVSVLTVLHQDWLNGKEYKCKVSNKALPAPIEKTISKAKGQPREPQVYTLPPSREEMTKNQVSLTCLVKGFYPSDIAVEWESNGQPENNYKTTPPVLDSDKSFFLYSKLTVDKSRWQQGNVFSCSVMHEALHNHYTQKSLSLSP
# light: B1 light
# notes: copies: 2 + 2
# Biological target: T1, soluble human FcγRIIb
# Assay: SPR, Ab-IgE complex over captured hFcγRIIb, pH 7.4, 25C
# Protocol: (§1) Regarding the produced Fc region variant-containing antibodies, binding assays between soluble human FcγRIIb and antigen-antibody complexes were performed using BIACORE T200 (GE Healthcare). Soluble human FcγRIIb (NCBI accession NM_004001.3) was produced in the form of a His-tagged molecule by a method known in the art. An appropriate amount of an anti-His antibody was fixed onto Sensor chip CM5 (GE Healthcare) by the amine coupling method using a His capture kit (GE Healthcare) to capture human FcγRIIb. Next, an antibody-antigen complex and a running buffer (as a reference solution) were injected, and interaction was allowed to take place with the human FcγRIIb captured onto the sensor chip. 20 mM N-(2-Acetamido)-2-aminoethanesulfonic acid, 150 mM NaCl, 1.2 mM CaCl₂, and 0.05% (w/v) Tween 20 at pH 7.4 was used as the running buffer, and the respective buffer was also used to dilute the soluble human FcγRIIb. To regenerate the sensor chip, 10 mM glycine-HCl at pH 1.5 was used. All measurements were carried out at 25° C. Analyses were performed based on binding (RU) calculated from sensorgrams obtained by the measurements, and relative values when the binding amount of Ab1H/Ab1L (original Ab1) was defined as 1.00 are shown. To calculate the parameters, the BIACORE T100 Evaluation Software (GE Healthcare) was used.
row,Binder,"BIACORE fold (relative binding, original Ab1=1.00)"
1,B1,0.92 fold
2,B2,1.05 fold
3,B3,1.37 fold
4,B4,1.57 fold
5,B5,0.06 fold
6,B6,1.04 fold
7,B7,0.96 fold
8,B8,0.91 fold
9,B9,1.02 fold
10,B10,-0.01 fold
11,B11,0.76 fold
12,B12,1.21 fold
13,B13,1.28 fold
14,B14,1.21 fold
15,B15,1.27 fold
16,B16,1.52 fold
17,B17,1.33 fold

# Biological target: T1, soluble human FcγRIIb
# Assay: as above
# Remark: another data set of the same source
# Protocol: as §1
row,Binder,"BIACORE fold (relative binding, original Ab1=1.00)"
1,B18,1.47 fold
2,B19,1.16 fold
3,B20,1.46 fold
4,B21,1.23 fold
5,B22,1.48 fold
6,B23,0.98 fold
7,B24,0.99 fold
8,B25,1.38 fold
9,B26,1.49 fold
10,B27,1.26 fold
11,B28,1.71 fold
12,B29,1.35 fold
13,B30,1.02 fold
14,B31,1.23 fold

# Biological target: T1, soluble human FcγRIIb
# Assay: as above
# Remark: another data set of the same source
# Protocol: as §1
row,Binder,"BIACORE fold (relative binding, original Ab1=1.00)"
1,B32,0.79 fold
2,B33,1.08 fold
3,B34,1.2 fold
4,B35,1.13 fold
5,B36,1.21 fold
6,B37,1.23 fold
7,B38,1.19 fold
8,B39,1.18 fold
9,B40,1.02 fold
10,B41,1.03 fold
11,B42,1.46 fold
12,B43,1.24 fold
13,B44,1.19 fold
14,B45,1.13 fold
15,B46,1.22 fold
16,B47,1.19 fold
